Reference: publication PMC4769559 (BMC Veterinary Research, 2016)

B1: 6 × His-SUMO-VHH6 fusion protein (VHH)
VHH: QVQLVESGGGSVQAGGSLRLSCTASGFTFDDSDMVWYRQAPGNECEVVSYITSDGTTYHADSVKGRFTISQDNAKSTVYLQMNSLKPEDTAVYYCAADLVLESPSCEWSQGTLVTVSS
B2: VHH5 fused to the Gal4 activation domain (pAD-VHH, pGADT7-Rec) (VHH)
VHH: QVQLVESGGGLVQPGGSLKLSCAASGFTFSTNAMSWFRPAPGKERKWVSAIDAGGGNTYYDDSMKGRFTISKDNAKNTLYLQLNSLKSEDTAMYYCAKDPATVPTNRGQGTLVTVSS
B3: VHH1 fused to the Gal4 activation domain (pAD-VHH, pGADT7-Rec) (VHH)
VHH: QVQLVESGGGSVQAGGSLTLSCAASGATDSSSCMGWFRQAPGKEREGVANIDSDGNTNYAESVMGRFTISQDNAKNTLYLQMNTLKPEDTAMYRCAADPGGSWCVFLLARENALDAWGQGTLVTVSS
B4: VHH2 fused to the Gal4 activation domain (pAD-VHH, pGADT7-Rec) (VHH)
VHH: QVQLVESGGGSVQAGGSLKLSCAPPAGYIFSSCAMGWYRQAPGKEHELVSSIAINGTTVYADFVKGRFTIFQDNTKPTLYLQMNNLKTEDTAVYYCAAECTFSDHPYWGQGTLVTVSS
B5: VHH3 fused to the Gal4 activation domain (pAD-VHH, pGADT7-Rec) (VHH)
VHH: EVQLVESGGGSVQAGGSLRLSCTASGYTRCMGWFRQAPGKEREGVAIVVTGSPYYTDSVKDRFTISLDNAKNTVYLQMNSLKPEDTATYYCAADRSILGCRLFRLYEANYRGQGTLVTVSS
B6: VHH6 fused to the Gal4 activation domain (pAD-VHH, pGADT7-Rec) (VHH)
VHH: B1 VHH
B7: VHH7 fused to the Gal4 activation domain (pAD-VHH, pGADT7-Rec) (VHH)
VHH: QVQLVESGGGLVQPGGSLRLSCAASGFAFSIYAMSWVRQAPGKGLEWVSAINSGGGSEYYADSVKGRFTISRDNAKNTLYLQLNSLKTEDTAMYYCAKSTSDCSYSDPWCYALADFGYWGQGTQVTVSS
B8: VHH4 fused to the Gal4 activation domain (pAD-VHH, pGADT7-Rec) (VHH)
VHH: QVQLVESGGGSVQAGGPLRLSCAVSGYSYSSVCMAWFRQAPGKEREAVAGIYTGGGNKYYADSVKGRFTISQDNTKNTLYLQMNSLKPEDTAMYYCAADLTVAACVPGRPQLTEEYNIWGQGTLVTVSS

These binders were tested against cell derived HN protein (pCAGGS-HN transfected 293 T cells) (Newcastle disease virus, strain not …, UniProt O90340) (assay: pull-down). Settings: one partner purified.

Row | Binder | binding result
1 | B1 | binds

What follows are binders tested against truncate haemagglutinin-neuraminidase (HN) 49–577 aa of NDV La Sota fused to the yeast GAL4 DNA-BD (Newcastle disease virus, La Sota, UniProt O90340, strain) (assay: two-hybrid). Settings: partners not purified.

Row | Binder | binding result
2 | B2 | binds
3 | B3 | binds
4 | B4 | binds
5 | B5 | binds
6 | B6 | binds
7 | B7 | binds
8 | B8 | binds

The binders below were run against NDV HN glycoprotein in LaSota-infected DF-1 cells (Newcastle disease virus, La Sota, UniProt O90340, strain) (assay: immunostaining of cells or tissue). Settings: one partner purified.

Row | Binder | binding result
9 | B1 | binds
